Assay results: US20170306033A1 (Amgen, published 2017)
Changes are numbered by the printed parent chain.

T1: human PAC1 receptor (human, UniProt P41586 21-468)
T1 sequence: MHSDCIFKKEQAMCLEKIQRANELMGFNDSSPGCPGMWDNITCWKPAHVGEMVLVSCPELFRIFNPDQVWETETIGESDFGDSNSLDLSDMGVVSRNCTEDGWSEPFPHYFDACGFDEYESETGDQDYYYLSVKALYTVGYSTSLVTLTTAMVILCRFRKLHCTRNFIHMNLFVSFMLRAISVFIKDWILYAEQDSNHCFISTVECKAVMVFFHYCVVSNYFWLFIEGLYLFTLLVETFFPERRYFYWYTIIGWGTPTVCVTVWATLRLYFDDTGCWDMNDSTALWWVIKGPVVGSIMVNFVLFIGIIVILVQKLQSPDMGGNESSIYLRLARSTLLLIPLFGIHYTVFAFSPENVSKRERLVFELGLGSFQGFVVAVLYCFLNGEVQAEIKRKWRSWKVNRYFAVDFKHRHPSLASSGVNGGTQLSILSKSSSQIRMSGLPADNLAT

B1: iPS:327712 (bispecific antibody, human IgG1, kappa, lambda, N297G)
light 1: not shown
heavy 1: not shown
light 2: QSVLTQPPSVSAAPGQKVTISCSGSSSNIGNNYVSWYQQLPGTAPKLLIYDNNKRPSGIPDRFSGSKSGTSATLGITGLQTGDEADYYCGTWDSRLSAVVFGGGTKLTVLGQPKANPTVTLFPPSSEELQANKATLVCLISDFYPGAVTVAWKADGSPVKAGVETTKPSKQSNNKYAAKSYLSLTPEQWKSHRSYSCQVTHEGSTVEKTVAPTECS
heavy 2: QVQLVESGGGVVQPGRSLRLSCAASGFTFSSFGMHWVRQAPGKGLEWVAVISFDGSIKYSVDSVKGRFTISRDNSKNTLFLQMNSLRAEDTAVYYCARDRLNYYDSSGYYHYKYYGMAVWGQGTTVTVSSASTKGPSVFPLAPSSKSTSGGTAALGCLVKDYFPEPVTVSWNSGALTSGVHTFPAVLQSSGLYSLESVVTVPSSSLGTQTYICNVNHKPSNTKVDKKVEPKSCDKTHTCPPCPAPELLGGPSVFLFPPKPKDTLMISRTPEVTCVVVDVSHEDPEVKFNWYVDGVEVHNAKTKPCEEQYGSTYRCVSVLTVLHQDWLNGKEYKCKVSNKALPAPIEKTISKAKGQPREPQVYTLPPSRKKMTKNQVSLTCLVKGFYPSDIAVEWESNGQPENNYKTTPPVLKSDGSFFLYSKLTVDKSRWQQGNVFSCSVMHEALHNHYTQKSLSLSPGK
B2: iPS:327703 (bispecific antibody, human IgG1, kappa, lambda, N297G)
light 1: not shown
heavy 1: not shown
light 2: B1 light 2
heavy 2: B1 heavy 2 with K370E
B3: iPS:327719 (bispecific antibody, human IgG1, kappa, lambda, N297G)
light 1: DIQLTQSPSFLSASVGDRVTITCRASQSIGRSLHWYQQKPGKAPKLLIKYASQSLSGVPSRFSGSGSGTEFTLTISSLQPEDFATYYCHQSSRLPFTFGPGTKVDIKRTVAAPSVFIFPPSDEQLKSGTASVVCLLNNFYPREAKVQWKVDNALQSGNSQESVTEQDSKDSTYSLESTLTLSKADYEKHKVYACEVTHQGLSSPVTKSFNRGEC
heavy 1: not shown
light 2: B1 light 2 with G75A
heavy 2: B1 heavy 2 with K370E
B4: iPS:327714 (bispecific antibody, human IgG1, kappa, lambda, N297G)
light 1: EIVLTQSPATLSLSPGERATLSCRASQSVGRSLHWYQQKPGQAPRLLIKYASQSLSGIPARFSGSGSGTDFTLTISSLEPEDFAVYYCHQSSRLPFTFGPGTKVDIKRTVAAPSVFIFPPSDEQLKSGTASVVCLLNNFYPREAKVQWKVDNALQSGNSQESVTEQDSKDSTYSLESTLTLSKADYEKHKVYACEVTHQGLSSPVTKSFNRGEC
heavy 1: not shown
light 2: B1 light 2
heavy 2: B1 heavy 2
B5: iPS:327713 (bispecific antibody, human IgG1, kappa, lambda, N297G)
light 1: B3 light 1
heavy 1: not shown
light 2: B1 light 2
heavy 2: B1 heavy 2
B6: iPS:327730 (bispecific antibody, human IgG1, kappa, lambda, N297G)
light 1: B4 light 1
heavy 1: not shown
light 2: B1 light 2 with G75A
heavy 2: B1 heavy 2
B7: iPS:327729 (bispecific antibody, human IgG1, kappa, lambda, N297G)
light 1: B3 light 1
heavy 1: not shown
light 2: B1 light 2 with G75A
heavy 2: B1 heavy 2
B8: iPS:327717 (bispecific antibody, human IgG1, kappa, lambda, N297G)
light 1: not shown
heavy 1: not shown
light 2: B1 light 2 with G75A
heavy 2: B1 heavy 2 with K370E
B9: iPS:327731 (bispecific antibody, human IgG1, kappa, lambda, N297G)
light 1: not shown
heavy 1: not shown
light 2: B1 light 2
heavy 2: B1 heavy 2 with D105E, K370E
B10: iPS:327704 (bispecific antibody, human IgG1, kappa, lambda, N297G)
light 1: not shown
heavy 1: not shown
light 2: B1 light 2
heavy 2: B1 heavy 2 with K370E
B11: iPS:327718 (bispecific antibody, human IgG1, kappa, lambda, N297G)
light 1: not shown
heavy 1: not shown
light 2: B1 light 2 with G75A
heavy 2: B1 heavy 2 with K370E
B12: iPS:326661 (bispecific antibody, human IgG2, kappa)
light 1: not shown
heavy 1: QVQLQQSGPGLVKPSQTLSLTCAISGDSVSSNSATWNWIRQSPSRGLEWLGRTYYRSKWSNHYAVSVKSRITINPDTSKSQFSLQLNSVTPEDTAVYYCARGTWKQLWFLDHWGQGTLVTVSSASTKGPSVFPLAPCSRSTSESTAALGCLVKDYFPEPVTVSWNSGALTSGVHTFPAVLQSSGLYSLKSVVTVPSSNFGTQTYTCNVDHKPSNTKVDKTVERKCCVECPPCPAPPVAGPSVFLFPPKPKDTLMISRTPEVTCVVVDVSHEDPEVQFNWYVDGVEVHNAKTKPREEQFNSTFRVVSVLTVVHQDWLNGKEYKCKVSNKGLPAPIEKTISKTKGQPREPQVYTLPPSREEMTKNQVSLTCLVDGFYPSDIAVEWESNGQPENNYDTTPPMLDSDGSFFLYSDLTVDKSRWQQGNVFSCSVMHEALHNHYTQKSLSLSPGK
light 2: EIVLTQSPGTLSLSPGERATLSCRASQSVSSGYLTWYQQKPGQAPRLLIYGASSRATGIPDRFSGSGSGTDFTLTISRLEPEDFAVYYCQQYGNSLSRFGQGTKLEIKRTVAAPSVFIFPPSDEQLKSGTASVVCLLNNFYPREAKVQWKVDNALQSGNSQESVTEQDSKDSTYSLKSTLTLSKADYEKHKVYACEVTHQGLSSPVTKSFNRGEC
heavy 2: QVQLVESGGGVVQPGRSLRLSCAASGFTFSSYGMHWVRQAPGKGLEWVAVIWYDGSNKYYADSVKGRFIISRDKSKNTLYLQMNSLRAEDTAVYYCARAGGIAAAGLYYYYGMDVWGQGTTVTVSSASTKGPSVFPLAPCSRSTSESTAALGCLVKDYFPEPVTVSWNSGALTSGVHTFPAVLQSSGLYSLESVVTVPSSNFGTQTYTCNVDHKPSNTKVDKTVERKCCVECPPCPAPPVAGPSVFLFPPKPKDTLMISRTPEVTCVVVDVSHEDPEVQFNWYVDGVEVHNAKTKPREEQFNSTFRVVSVLTVVHQDWLNGKEYKCKVSNKGLPAPIEKTISKTKGQPREPQVYTLPPSRKKMTKNQVSLTCLVKGFYPSDIAVEWESNGQPENNYKTTPPMLKSDGSFFLYSKLTVDKSRWQQGNVFSCSVMHEALHNHYTQKSLSLSPGK
B13: iPS:327870 (bispecific antibody, human IgG2, kappa, lambda)
light 1: not shown
heavy 1: B12 heavy 1
light 2: B1 light 2 with A72T
heavy 2: QVQLVESGGGVVQPGRSLRLSCAASGFTFSSFGMHWVRQAPGKGLEWVAVISFDGSIKYSVDSVKGRFTISRDNSKNTLFLQMNSLRAEDTAVYYCARDRLNYYDSSGYYHYKYYGMAVWGQGTTVTVSSASTKGPSVFPLAPCSRSTSESTAALGCLVKDYFPEPVTVSWNSGALTSGVHTFPAVLQSSGLYSLESVVTVPSSNFGTQTYTCNVDHKPSNTKVDKTVERKCCVECPPCPAPPVAGPSVFLFPPKPKDTLMISRTPEVTCVVVDVSHEDPEVQFNWYVDGVEVHNAKTKPREEQFNSTFRVVSVLTVVHQDWLNGKEYKCKVSNKGLPAPIEKTISKTKGQPREPQVYTLPPSRKKMTKNQVSLTCLVKGFYPSDIAVEWESNGQPENNYKTTPPMLKSDGSFFLYSKLTVDKSRWQQGNVFSCSVMHEALHNHYTQKSLSLSPGK

Each binder was assayed against T1, human PAC1 receptor (assay: cell-based or functional assay).

% inhibition of human PAC1	Binder
81%	B1
87%	B2
59%	B3
104%	B4
85%	B5
101%	B6
85%	B7
94%	B8
74%	B9
71%	B10
70%	B11
72%	B12
86%	B13

These binders were tested against human CGRP receptor (human, UniProt Q16602 23-461; O60894 27-148) (assay: cell-based or functional assay).
Chain of human CGRP receptor (Q16602 23-461 limits assumed, chain 1 of 2): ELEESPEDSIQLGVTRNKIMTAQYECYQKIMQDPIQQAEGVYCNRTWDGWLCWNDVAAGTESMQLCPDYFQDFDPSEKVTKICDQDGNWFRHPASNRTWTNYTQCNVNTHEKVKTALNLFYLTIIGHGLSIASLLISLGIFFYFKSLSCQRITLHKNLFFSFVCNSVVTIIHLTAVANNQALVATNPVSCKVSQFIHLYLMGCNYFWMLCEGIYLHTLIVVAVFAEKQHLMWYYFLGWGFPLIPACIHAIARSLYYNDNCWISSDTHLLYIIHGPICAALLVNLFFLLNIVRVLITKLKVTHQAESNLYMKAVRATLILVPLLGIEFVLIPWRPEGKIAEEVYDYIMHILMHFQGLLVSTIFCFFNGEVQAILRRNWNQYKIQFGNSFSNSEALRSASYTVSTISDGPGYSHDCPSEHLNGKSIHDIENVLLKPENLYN
Chain of human CGRP receptor (O60894 27-148 limits assumed, chain 2 of 2): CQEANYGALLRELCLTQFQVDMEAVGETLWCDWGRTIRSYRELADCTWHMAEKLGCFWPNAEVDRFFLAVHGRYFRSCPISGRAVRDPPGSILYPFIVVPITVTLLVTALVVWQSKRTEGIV

% inhibition of human CGRPR	Binder
89%	B1
83%	B2
85%	B3
94%	B4
89%	B5
87%	B6
84%	B7
92%	B8
74%	B9
82%	B10
78%	B11
77%	B12
67%	B13
